Reference: US7932362B2, “Antibodies to NRIF3 proteins” (New York University, priority 1999, dated 2011)

B1: EnS: β3-endonexin short form, 111 amino acids, identical to the first 111 residues of NRIF3 (protein)
chain: MPVKRSLKLDGLLEENSFDPSKITRKKSVITYSPTTGTCQMSLFASPTSSEEQKHRNGLSNEKRKKLNHPSLTESKESTTKDNDEFMMLLSKVEKLSEEIMEIMQNLSSIQ
B2: EnL: β3-endonexin long form, 170 amino acids, alternatively spliced product of the same gene as NRIF3 (protein)
chain: MPVKRSLKLDGLLEENSFDPSKITRKKSVITYSPTTGTCQMSLFASPTSSEEQKHRNGLSNEKRKKLNHPSLTESKESTTKDNDEFMMLLSKVEKLSEEIMEIMQNLSSIQALEGSRELENLIGISCASHFLKREMQKTKELMTKVNKQKLFEKSTGLPHKGQPQMSPQL

Columns and labels:
[1] = system: B42-RAR LBD; assay: Yeast two-hybrid assay, LexA-NCD bait with prey B42-RAR LBD; format: cell-based, human; conditions: cognate ligand, FIG. 11
Experimental: The following receptor baits were used: LexA-cTRα LBD, LexA-hTRβ LBD, LexA-hRARα LBD, LexA-hRXRα LBD, and LexA-hGR LBD. The NRIF3 C-terminal domain (NCD) was fused in frame with the LexA DBD and examined for interaction with receptor LBDs using the following preys: B42-cTRα LBD, B42-hRARα LBD, and B42-hRXRα LBD expressed from pJG4-5. Yeast cells harboring appropriate plasmids were grown in selective media with Gal/Raf in the presence or absence of cognate ligand (1 μM T3 for TR, all trans or 9-cis RA for RAR, 9-cis RA for RXR, and 10 μM deoxycorticosterone for GR) overnight before β-galactosidase activity was assayed using o-Nitrophenyl β-D-Galactopyranoside as the substrate. β-galactosidase units are expressed as (O.D. 420 nm×1000)/(minutes of incubation×O.D. 600 nm of yeast suspension).
To construct the bait plasmid expressing LexA-NCD, a derivative of pEG202 (which contains a new polylinker) plasmid was digested with NcoI and XhoI and ligated to synthetic oligonucleotides that encode the last 16 amino acids of NRIF3 (residues 162-177). Similarly, mutant NCD was generated by using oligonucleotides that contain the designed mutations in the ligation reaction. All constructs were confirmed by sequence analysis. […]

[2] = target: T1, cTRα (Gallus gallus, UniProt P04625); assay: Transfection study, CAT reporter in HeLa cells, TR-mediated transactivation; format: cell-based, chicken; conditions: IR-ΔMTV-CAT reporter, 1 μM T3, FIG. 5A
T1 sequence (P04625 1-408): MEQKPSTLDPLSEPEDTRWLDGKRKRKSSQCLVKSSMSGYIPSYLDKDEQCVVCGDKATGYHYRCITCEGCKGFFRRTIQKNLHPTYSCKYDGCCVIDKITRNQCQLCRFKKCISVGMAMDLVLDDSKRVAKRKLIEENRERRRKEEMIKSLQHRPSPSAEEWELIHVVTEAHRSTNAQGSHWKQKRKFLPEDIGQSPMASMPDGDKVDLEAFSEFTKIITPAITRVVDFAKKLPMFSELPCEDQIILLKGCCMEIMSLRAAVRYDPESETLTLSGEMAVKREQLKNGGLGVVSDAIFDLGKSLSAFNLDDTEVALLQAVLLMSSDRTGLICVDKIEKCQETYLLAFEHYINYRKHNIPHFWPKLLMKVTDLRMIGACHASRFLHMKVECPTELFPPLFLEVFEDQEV
Excerpt: (§1) Transfection studies. Most reporters used in this study have been described previously, including IR-ΔMTV-CAT, DR4-ΔMTV-CAT, GH-TRE-tk-CAT, IR+3 (ERE)-ΔMTV-CAT (5, 25, 78). A DR1-ΔMTV-CAT reporter responsive to RXR was obtained from Ron Evans. A GRE/PRE-tk-CAT reporter was obtained from Gunther Schutz. The (IR)2-TATA-CAT was constructed in our laboratory by cloning two copies of the IR sequence (AGGTCA TGACCT) upstream of a TATA element derived from the tk promoter. A hVDR expression vector and the VDRE-ΔMTV-CAT containing the VDRE from the osteocalcin promoter were obtained from J. Wesley Pike. Vectors expressing cTRα, hRARα, hRXRα, rGR, hPR, and hER have been described previously (17, 25, 26, 50, 53, 81). The NRIF3 expression vector was constructed by cloning full length NRIF3 into a pExpress vector (25). Appropriate plasmids were transfected into HeLa cells by calcium phosphate co-precipitation using 25-100 ng of the receptors, 250-500 ng of the CAT reporters, and 750 ng of the NRIF3 or control pExpress vector. After transfection, cells were incubated at 37° C. (with or without cognate ligands) for 42 hours before being harvested. […] Relative CAT activity was determined as the percent acetylation of substrate per 30 μg of cell protein in a 15 hour incubation at 37° C. The results were calculated from duplicate or quadruplicate samples and the variation among samples was less than 10%.

[3] = system: endogenous RAR(s); assay: Transfection study, CAT reporter in HeLa cells, endogenous RAR(s); format: cell-based, human; conditions: 1 μM, HeLa cells without receptor expression vector, FIG. 6A
Excerpt: as §1

[4] = system: receptor-mediated transcription; assay: Transfection studies with endonexins (data not shown); format: cell-based
Excerpt: as §1

[5] = target: LexA-TR (Gallus gallus, UniProt P04625); conditions: yeast two-hybrid, 1 μM T3, FIG. 8B
[6] = target: LexA-RXR (Homo sapiens, UniProt P19793); conditions: yeast two-hybrid, 1 μM 9-cis RA, FIG. 8B
Sequence of LexA-RXR (P19793 227-462): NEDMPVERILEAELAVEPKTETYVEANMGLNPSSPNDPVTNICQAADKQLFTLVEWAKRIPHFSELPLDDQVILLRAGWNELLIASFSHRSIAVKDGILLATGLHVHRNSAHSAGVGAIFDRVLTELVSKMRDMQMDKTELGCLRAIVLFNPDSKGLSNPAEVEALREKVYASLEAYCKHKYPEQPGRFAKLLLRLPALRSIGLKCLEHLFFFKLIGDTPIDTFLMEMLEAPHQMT

Sequence of B42-RAR LBD (P10276 183-417 limits assumed): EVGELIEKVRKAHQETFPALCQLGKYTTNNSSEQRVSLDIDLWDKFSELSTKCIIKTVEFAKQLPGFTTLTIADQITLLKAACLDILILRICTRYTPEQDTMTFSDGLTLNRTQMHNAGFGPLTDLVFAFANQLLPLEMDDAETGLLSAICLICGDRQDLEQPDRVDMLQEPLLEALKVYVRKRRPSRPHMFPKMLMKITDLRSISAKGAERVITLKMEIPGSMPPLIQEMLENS

Molecule | effect on receptor-mediated transcription [4] | interaction with liganded TR [5] | interaction with liganded RXR [6] | also measured
NCD: C-terminal domain of NRIF3, amino acids 162-177; docked as 17-residue peptide KASRHLDSYEFLKAILN (SEQ ID NO:7) (C-terminal peptide of NRIF3) | – | – | – | interaction with the LBD of RAR [1]: interact efficiently
CBP: reported co-activator for nuclear receptors, used as a control | – | – | – | enhancement of TR-mediated activation of the CAT reporter [2]: around 3 fold
C/C(=C\c1ccc(C(=O)O)cc1)c1ccc2c(c1)C(C)(C)CCC2(C)C [TTNPB] | – | – | – | activation of the IR-ΔMTV-CAT reporter by ligand [3]: activates
B1 | little effect | completely abolished | completely abolished | –
B2 | little effect | completely abolished | completely abolished | –
